In patent US9260754B2, “Connexin mutation detection for lymphatic variation and disease” (University of Pittsburgh—Of the Commonwealth System of …, priority 2010, dated 2016):

Key:
HeLa cells [1] = assay: Calcein AM scrape loading and dye transfer in stably transfected HeLa cells; format: cell-based, human; settings: for dye transfer: ratio, rate normalized to untransfected HeLa cells, Calcein AM scrape loading, 10 min, stably transfected HeLa, mean ± SEM
Description: A confluent monolayer of HeLa cells (untransfected and stably transfected, as described above) was grown in DMEM with 10% FBS in coverslip bottom plates (MatTek) and placed in a temperature controlled microincubator (Zeiss). A 10×, 0.4 NA objective was used to collect DIC and GFP images every 5 seconds for 10 minutes without changing media. A pipette loaded with 1 μl Calcein AM (Invitrogen), a gap junction permissive dye with molecular weight 662, −4 charge when intracellular and fluorescent, was used to create a scrape across the monolayer. At least 5 replicate dishes were analyzed on the same day, and WT hCx47 expressing HeLas were grown and assayed as a concurrent control; assays were performed on at least 2 different batches of HeLa cells on different days. Quantitation of the rate of spread was calculated using MetaMorph, by obtaining integrated intensity at the 10th time point, within the first minute of imaging, and then at the endpoint at 10 min, and subtracting the initial intensity from that at the endpoint. Results are reported as mean and SEM, and tested for significance (p<0.05) using an unpaired Student's t-test.
In these mutants, Cx47 appears to concentrate in the ER. Unlike electrophysiologic measurements, dye transfer assays are used to assess GJIC of relatively large molecules. We also found significant differences in GJIC in HeLa cells overexpressing Cx47 lymphedema associated mutations by assessing rates of dye transfer in a conventional scrape assay using stably transfected HeLa cells normalized to rates in untransfected HeLa cells (FIG. 7D; Table 3). […] It is not surprising that the mutants show some differences in GJIC between the electrophysiologic and dye transfer assays given that they are designed to measure different kinds of transport and that Cx channel permeability is now believed to be governed by factors including molecular shape, charge and size, in addition to channel conformation and composition.

HeLa cells [2] = assay: Cx47 gap junction plaque formation by immunofluorescent confocal microscopy in transfected HeLa cells; format: cell-based, human; settings: near confluent transfected HeLa cells
Description: Human neonatal foreskin was collected anonymously as discarded tissue according to an IRB protocol. Samples were collected immediately after harvest in DMEM, then fixed in 2% paraformaldehyde for 2 hrs, then stored in 30% sucrose in 1×PBS overnight for cryosectioning, and sectioned in 6 μm slices at −30° C. Transfected (stable and transient) and untransfected HeLa cells were grown to near confluence in coverslip bottom dishes. All cells were rinsed with PBS and fixed with 2% paraformaldehyde. Subsequently, tissue and HeLa cells were processed similarly: following permeabilization with 0.1% Triton X, cells were blocked with 2% BSA. A human Cx47 antibody (ab) was obtained from the S. Scherer laboratory: polyclonal rabbit against amino acids 344-399 in the cytoplasmic C-terminal tail; we used human CNS tissue and positive oligodendrocyte staining as a positive control and primary antibody delete and rabbit IgG as negative controls (data not shown). Cx47 ab was diluted in 0.5% BSA in a 1:200 ratio, applied to cells and incubated at RT for one hour. Mouse monoclonal Proxl (Chemicon) was used as a lymphatic marker for the foreskin samples. Cells were incubated with the secondary abs (Donkey Anti-Rabbit Cy5 and Donkey Anti-Mouse Cy3; Invitrogen) for one hour at RT and washed; Draq5 was used as a nuclear marker. HeLa images were acquired with an inverted Olympus Fluoview 1000 Confocal Microscope 100× oil, 1.4 NA objective. Foreskin images were acquired on a Zeiss Meta LSM 510 inverted confocal microscope with 40× oil, 1.3 N.A. objective. LECs (primary human microvascular adult dermal lymphatics; Lonza) were grown in fibronectin coated coverslip bottom MatTeks dishes in EGM™-2 MV—Microvascular Endothelial Cell Medium-2 (Lonza Inc.) to approximately 80% confluence, and prepared similarly but a commercially available (AbCam) Cx47 ab, polyclonal rabbit against amino acids 41-70 in the human sequence was used along with Drag 5 nuclear marker and phalloidin to mark f-actin.
Immunofluorescence microscopy determines the presence or absence of Cx47 gap junction plaques when the constructs are transiently expressed in HeLa cells. Cx plaques reflect a physiologic accumulation of Cx channels in the cell membrane between cells (tens to thousands of channels); thus plaques are indicative of normal trafficking and gap junction formation at the cell membrane.
Immunofluorescence microscopy determines the presence or absence of Cx47 gap junction plaques when the constructs are transiently expressed in HeLa cells. A human Cx47 antibody was obtained: polyclonal rabbit against amino acids 344-399 in the cytoplasmic C-terminal tail (Orthmann-Murphy J L, et al. Mol Cell Neurosci 2007; 34:629-41); we used human CNS tissue and positive oligodendrocyte staining as a positive control and primary antibody delete as a negative control (data not shown). Cultured HeLa cells were routinely fixed and stained with the primary antibodies against Cx47, along with a nuclear marker, and transfected cells were identified by their EGFP signal. Plaques were imaged using an Olympus Fluoview 1000 confocal microscope, 100× oil objective.

| Molecule | dye transfer (HeLa cells [1]) | Calcein AM dye transfer compared to WT-hCx47 transfected HeLa cells (in words) (HeLa cells [1]; stably transfected HeLa cells, scrape assay) | Cx47 plaque formation (in words) (HeLa cells [2]) | Cx47 plaque formation (in words) (HeLa cells [2]; listed as WT-hCx47-EGFP) |
| --- | --- | --- | --- | --- |
| G146S: Cx47 missense mutant G146S (436G>A), intracellular loop, construct expressed in HeLa cells or LECs (protein, listed as Homo sapiens) MSWSFLTRLLEEIHNHSTFVGKVWLTVLVVFRIVLTAVGGEAIYSDEQAKFTCNTRQPGCDNVCYDAFAPLSHVRFWVFQIVVISTPSVMYLGYAVHRLARASEQERRRALRRRPGPRRAPRAHLPPPHAGWPEPADLGEEEPMLSLGEEEEEEETGAAEGAGEEAEEAGAEEACTKAVGADGKAAGTPGPTGQHDGRRRIQREGLMRVYVAQLVARAAFEVAFLVGQYLLYGFEVRPFFPCSRQPCPHVVDCFVSRPTEKTVFLLVMYVVSCLCLLLNLCEMAHLGLGSAQDAVRGRRGPPASAPAPAPRPPPCAFPAAAAGLACPPDYSLVVRAAERARAHDQNLANLALQALRDGAAAGDRDRDSSPCVGLPAASRGPPRAGAPASRTGSATSAGTVGEQGRPGTHERPGAKPRAGSEKGSASSRDGKTTVWI | 1.05 | less | Cx47 intercellular plaques | – |
| WT-hCx47: human wild type Cx47 construct in bicistronic pIRES2-EGFP vector, expressed in HeLa cells or LECs (protein, UniProt Q5T442 1-439, looked up) Gap junction gamma-2 protein: MTNMSWSFLTRLLEEIHNHSTFVGKVWLTVLVVFRIVLTAVGGEAIYSDEQAKFTCNTRQPGCDNVCYDAFAPLSHVRFWVFQIVVISTPSVMYLGYAVHRLARASEQERRRALRRRPGPRRAPRAHLPPPHAGWPEPADLGEEEPMLGLGEEEEEEETGAAEGAGEEAEEAGAEEACTKAVGADGKAAGTPGPTGQHDGRRRIQREGLMRVYVAQLVARAAFEVAFLVGQYLLYGFEVRPFFPCSRQPCPHVVDCFVSRPTEKTVFLLVMYVVSCLCLLLNLCEMAHLGLGSAQDAVRGRRGPPASAPAPAPRPPPCAFPAAAAGLACPPDYSLVVRAAERARAHDQNLANLALQALRDGAAAGDRDRDSSPCVGLPAASRGPPRAGAPASRTGSATSAGTVGEQGRPGTHERPGAKPRAGSEKGSASSRDGKTTVWI | 1.80 | – | Presence | Cx47 intercellular plaques |
